Test: protease stability score; higher = more stable; yeast display proteolysis, trypsin and chymotrypsin;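 note: relative to predicted unfolded state with 0 unfolded-like and 1 meaning tenfold more protease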

| Sequence | protease stability score |
| --- | --- |
| DEEDQFTEKITRILHEIHRTGDFEKWEKLADPHVKVVIGEFEQHGRETASWVIEWLARYMGIKHIELRDHRVINGVVHLEHEVKVGDKRIDLELRHFVYDGRLKETEIRFR | 0.734 |
| DEEDRDAEFFMRLWMRLHKTGDEDQLRELLDPDVRVRFENREFHGREELIKFIHRHRREARTDVKIRDFRVQGDKVIVHGELILQFDGVRFNHDLILITRKIDGRWRIEEIEVR | 1.84 |
| DEEDREAHEAIRILIDLLRTGDFDSLTRLADPHVRLDIGDKRLHGMKDFSRWILELRIHNFDLRHFDLVGDKIHVEGSLHTEFNGKHHEIHIQINITKVNGRWKIDEVTSL | 1.63 |
| DEEDREKDDLLRRFITAIYTGDERAIKEYLDPHVRTVFNGQEKHGREEVTTLVWQIMRELGIKVIRTHDEREQGNKVELHLELFVGNKRLEINVFAEKVDGKWILRQFIIKVD | 1.2 |
| DEEDRELEEMLELIIHAFKTGDEEIMKRLFDPNTRIRINGREEIGWEHAVKILREWRFRHVILRRKHKQGDKLHYEFEVHGHFDGQQDSVHVRILILKVNGRWIITEYIFV | 2.51 |
| DEEDRELERIYQELFEAWLTGNEDDLKKLADPNVRVDINGKDKVGREQEIEDLRRVKNMKVKLEDSDIIGDWITVDVVINFNGREIRMELEWRVINGKVKRVIVRYR | 1.2 |
| DEEDRFAEEYIRLLHEIIKTGDWHQLKRMVDPNARWDVNGVDVIGMEEYVRVWKDEIDRFKGLRLHPRIRHVDFINGRIHVHSEKKVEYGDKEETFETKRHIFLFNGVDTHFSIRID | 0.278 |
| DEEDRHAEEVFRTLIHAWHTGDEDTLKRMLDPDVKILIGDKDHHGRDFFAREMHEISKHLRVHFELHELDVINGRVHVHGTLVITINGREIRITVHIHVLIVDGRVKLQKWIKV | 0.583 |
| DEEDRHLEEFIRLWLHFFFTGDWEFHMKNADPNVKLDAENRSVHGRDDASRTLVEIVRRLGIDHVELKDSHVIDGVIELHLELKIGDKRRTMHIHINIFNGRIRSVRIHFS | 1.28 |
| DEEDRKSERVLKEFLHDVLTGDEHTLNRLADPHVRLEVGDKEDHGREKLAKYMVRADHIEHVELRHHHFQGDKIHLHVKIRENVNGREVIFESIEIWLKIDGRWILDSLIVK | 0.091 |
| DEEDRQAEHIARLVIEELLTGDEESFSHLVDPDTRSEFDGKEFIGREWFNKWLRRILEEIRFHINPTEIRYQGDKAIVHGRLHLHYNGQDVHITVHYKLIVINGRHKRIKEERS | 1.3 |
| DEEDRRAKEIMRLLLEDFHTGNEDSLRELMDPTTRNDLVVNGQEHVIHGRETFAEWESKWIKHLRMNLRLRHVNAFNGQVRLETELNLEVNGRIIILDTEVIVHVYNGRIHSFTHRIK | 0.236 |
| DEEDRRYEHWFKLFLEIFLTGDFDQWKKLLDPHVRVDVNGQERVGRDQISEAMRRLLEILGVDHIEVEEVHLQGEKVNLNTQENVNGVETHSRIHVIVINGRLRHSKMDIN | 1.29 |
| DEEDRYMKELLEELLKDFETGNWDRLISLLDPHMRIQAENVTLHGRETTSRWLQEITSRVKGLRLHIESEEIQGDKAIIDGINNVNGREIRTILFSVKVDGRWLIKSIIIL | 1.28 |
| DEEEAHTRHILELFKHNYHTGDEDLFRRLLDPNVRLHIDGVNIHGREEVVEVLVKLAHEIRVELRVKHIRIINGVAEVDIELTIHQGDKHESRKIHLFILKVNGRWRVESIQWR | 1.42 |
| DEEEDAKKFVLDVWRETLETGDEKLLLELIDPHVRIIIGDKEDHGRETLLHHFREIRFEDFQVRDIRVIGEKIHIHGEHLIRFDGRRVRLEIEIIMTKINGRWLVEEIRIR | 2.58 |
| DEEEDDVRRLIERFQHNFDTGNWHMLEHLVDPHARINFDGVESHGMELIVHVNEHMRIHDTHIRDIRIDVVGDKVFVENIVRVESEINGQHRDVEMRISMVITKVNGRWLIKEIRIKIH | 0.974 |
| DEEEDHERHLVERTIHSLETGDWHETHELLDPHVRIQIVQGDKSLDLHGREAAVKFFLDWLRRVPNMRLEFKRIEDYDGVSHIDGVLRIGDKEMRFEIEIHVFNGVVKRMHIRMH | 1.38 |
| DEEEDHERRFLEELLRDWVTGDENKLDELFDPDARNYINGRRYHGREDVREVLKLLKDRIDHIEMTDIKDVKIQGDKMRFDTRVHLRQGDKTIRIKTHFVIWKVNGKWRMEAVVIV | 1.02 |
| DEEEDKLRKFADHFWHLRLTGDFDIWEHLADPDTKENQGEYSNIGREHISEYNLRETRKFKNIRMHIRRKTIQGDKIKIDGVLIFNGVEIEVILILIVINGRIREVRVHIE | 1.6 |
| DEEEDLQRHVADEFLHNLLTGNEHDIERLMDPNVKLIMDVNGVKLHFHGREQVLKLLREWRLDHWEVKRRHLVGDYAVLDGHQQGVIDGREVRTDSEIELRLYNGRMKEVTIRVR | 1.47 |
| DEEEDRIMKMLRLIILEIVTGDEEKFRHLFDPDARFIVGNKTYHGWEMWHEEFRHIRITEMELEHYDVINGRAHLHTRLRGKINGREIDTETRLIVVVINGKIHSIELRIH | 2.18 |
| DEEEDRLRRLAKTLLENWVTGDEEMHQRFADPNTRLNVDVDGKEIHRHGREEMLKDLRHELERVDHWELRLRDMKIFDGVVDIDGELILNINGKVIRQEVRIIMVIVNGRLRSVHFQVH | 1.26 |
| DEEEDTARFLMELILHDLETGDEERLFRLMDPHTRLDIDGQQYHGRELVLQLHETLLERWGVERVEAFLRRTEIQGEKVLSDVHRHFNGVTVKTHIVLEKFNGRWSTKTLEYK | 0.6 |
| DEEEDVMRKWLQLFLEAFETGDFRLIEEMFDPNTRLDVGDKEYHGRDEIARVIRTLWEEMRFEHFHIHRFDVFNGVANSDTHVVGKIGDKRRDVRVHIILIIVNGKLKKFRIETR | 1.71 |

| Sequence | protease stability score |
| --- | --- |
| DEEEEALEEVLRLLSKAILTGDEDQMRELVDPHVRVHVGDKDLIGWDRYKRHTKEMRIIIHRFELRDKRRVGNKLEFDGHMDYELIVNGRTWKHREDMFMVIVKVNGKWHIHYEQVD | 0.88 |
| DEEEEALRLAFELIYTVLRTGDEEMWRRMADPDTKIDIGDKHFHGREHVEYVLRELHKRIDHIDHSHIDHVHVQGDKVHMDTTIVGTYDGQRTNLKTSFIVVKINGKWVMTSVRFR | 1.38 |
| DEEEEATEKFFEKLLRSWKTGDEKSYEELLDPHARSDINGKIFHGRDKLSQMLHEFLKRVKGITIHDVKVHDSRLIDGRAILDGRVDMKVGDKRFELNREVVTLKVDGRWILESEIVK | 0.767 |
| DEEEEDAERLLRELITWLYTGDFESLEKLMDPTTKLIQGDKTFIGREYLSKLFHDWGHTNVRAKLEDIKVVNGQVHIYGRLHYGDKTSETHFIVRKVNGKWLIKIVEFR | 1.62 |
| DEEEEDAHRLMHNVVHALRTGDWEEFSRLLDPNVMVIIGDKLFIGRETVLEMIKRMLDDWGVTRIHLHIHSKHVQGNKLHVDSQIDVNGRTTRVHIDATKIDGRWLLKRIEIK | 2.14 |
| DEEEEDFRMAEHFIRKSLKTGDERLREELMDPHVRIHQGDKHFHGREDASELHRQFDHIEHVHLKDFHFYNGRVIMHMHVLGHWDGRRTRFDTHVTATKIDGRWIVKEWTII | 0.552 |
| DEEEEDIDFLIHLLVKTIKTGDEHIFRRLMDPHVRMHAEGRELHGREVVVERWAKIMRELRITHIEVTHKDVVDGQVELHMRIKFRVGDKEKETRVELHAEKIDGRWVIRSIHIL | 1.75 |
| DEEEEDIEKFFKEWTRNVLTGNWERLRELADPHAKAVVDGVETHGMESLDKLIDESERKLGVDHTHLESVHVQGEWIHFHLRIIIGDKYLKLHIHTLVIDGRVKSMNVEFHSD | 1.16 |
| DEEEEDIRRAVTRFIEVILTGDEHSLERLMDPHVKIDIGDKHLHGREAKDRLRDEMRRKFKNLRIHMRDWHLEIYDGVAHSTFDFELEINGKRTHLELRVDVRKVDGRWLIDSYEIKIR | 1.15 |
| DEEEEDMKNMLRIWEETVETGDEHTKERFADPNMRLVVNGVSSHGMESFKTVIKWEHERYDHLKKIEIHRLEFFDGRVIIDGTFTGNIDGVEYKRRIILIMVKVDGRWLLEEVIIH | 1.39 |
| DEEEEDSEDAVRFIMLALDTGDEKLLTSLADPNMRLDVNGREFHGREDFIHFLEEVRKKLGVDRIRTHVRETHVINGRVHVRGELRWNGRTHESHVHIIKIDGKWVIKSVHIR | 2.11 |
| DEEEEDVRRAVEIWERSLRTGDEHEVKRFVDPHTRLEVDGREFHGREQFIEVMRHWRFRHFQIRDFRVIDGRADVDAISEVDYNGRRFEVKTIIIVIKINGRWVLHSLNIR | 1.63 |
| DEEEEEAHTITEILVHDWRTGNEEHLVKLIDPNARINYNGVNLHGMKAVSIILHHIRYKDVSLHEVRVFDGQVEIILKIHVNINGQDETHHTHIVLSKVNGRWLIDTIKWE | 1.28 |
| DEEEEEARIAVDMFRRTVETGDEELLRKMIDPHVRMHVGDKDLHGRDFAVEIFHKLGVDHFEIRHQRLIGDKVELDIKVNVNGKEMETHSHLEKVNGRWVIRSLDVR | 1.25 |
| DEEEEEDKRMADEIVHSFLTGNEDWLHELADPNTRSEVGDKEAHGRENMVKLLRIHLRELGVDHIELTHVRVHSQGDKIIVIVHGKVKIGDKILELHIHIIVLKIDGRWLLHSVRIEIN | 1.09 |
| DEEEEEDRHAAEITIKVLLTGDEKKLQELADPHTRFIIWIDGRELRYIGRRDLVRVWREIIRKLGIDHLSLDDMRVIDGKIHLHETMNVDGKNISRRIINNVINGVNKHIEVNLS | 1.17 |
| DEEEEEHRIAHELFIKTSQTGDEQESTEMMDPNVRVTIGNKHFVGREEVSKFFKEIRIKRVRFKRIRHINGKAEMEMHMHGEVNGRERELEIHVYIFKINGRWVIEEVRFH | 1.64 |
| DEEEEEILRVWEILIHLFVTGDEEKFSKMADPDYKWHQGDKSRIGRESMREHIKKFLEELRIKELHLHHTHVFDGRYEADVELRGHINGRESRIKSRIILEVYNGRVKLFIIDIR | 0.559 |
| DEEEEELHRLSRLILHLLLTGDWEKLADLADPHMRFEMVVGDKNEEFHGRERWLKFLRMVREKFKGMRIHLQDERVYGDKNDLDIVLNVNGQRHKVHLHLVVVDGVIKEIKIKVE | 2.18 |
| DEEEEELKQHLHEILHSIMTGDWRSLRHLIDPNVRLDIGDKTYHGREDFLTWVKHLIDKIPNVKFEIKHIRIVGEKVIMNIVVKINGVEHTRHLIADKIDGKWFISSTEVH | 1.76 |
| DEEEEELRELARISLELWITGDEDHLRHLMDPRTLLIVDGQEVHGREEAIKWVAFHLLKIKGLTLELKDFDVINGRLHLHVTRRVNGVRRRLRIHIEIIDGRIKTIRITID | 2.28 |
| DEEEEELRRLLEEIFRNRVTGDEERWLELADPDVRLEEHINGQEIHLHGREDVAEHIREARIHSTEVKDVKVINGVIHLDEKIDGIINGVRRDTRVIVHIVVINGRIKSIRVIVN | 1.65 |
| DEEEEEMHRRARIFLELWMTGNEEVFNTLFDPNVRLHMNIGEKTHDFVGRETVHEVNRRWLEHIRIEDFKVREIRVQGDYATSDTRIVGIFDGRRIDIDVKIHILIVDGRLKEVELRFD | 2.1 |
| DEEEEEMRKMIDEILKDQATGDEDRLKKLLDPNMRSEINGKDLHGREIVTETLAHLFRFLGIKHVHLNDYRIQGDKVEIYGELEINGQKHTNKIHAEKVNGKWVISEMRLH | 1.43 |
| DEEEEERRRIAKELTHLWHTGDEDRLIEMADPNDRILIGDFDIHGWESAMRFLRYFRREFGVKHEEIKDIEIQGEKTHIHSHLKVGDKRHHVLVILVVINGRHKRIEIRIH | 0.755 |
